Test results from PMC9960219, “Structural and DNA end resection study of the bacterial NurA-HerA complex” (BMC Biology, 2023).

How the values were obtained:
[1] = target: Deinococcus radiodurans HerA (Deinococcus radiodurans)
[2] = target: HerA with point mutations D78A, E80A, and D81A (Deinococcus radiodurans)
[3] = target: Deinococcus radiodurans NurA (Deinococcus radiodurans); assay: cryo-EM structure; purified drNurA-HerA complex, low-resolution (~9 Å) map, 200 kV, 3D refinement with C2 symmetry; drHerA crystal structure and an AlphaFold2 model of drNurA fitted and refined into the map
[4] = target: Deinococcus radiodurans HerA (Deinococcus radiodurans); assay: as above
[5] = target: Deinococcus radiodurans HerA (Deinococcus radiodurans); assay: crystal structure; drHerA without any ligand, space group P3(1)21, 3.0 Å; sitting drop at 289 K, 0.1 M HEPES (pH 7.5), 1.3 M NaAc
[6] = target: Deinococcus radiodurans HerA (Deinococcus radiodurans); assay: cryo-EM structure; 2D class averages (top views) of purified drHerA alone, with ADP, with ADPNP or with 46-bp dsDNA; 200 kV Tecnai F20
[7] = target: Deinococcus radiodurans HerA (Deinococcus radiodurans); assay: crystal structure; drHerA with ADP bound (set up with ADP•AlF3, MgAc), space group P2(1)2(1)2(1), 3.4 Å; 0.2 M MgCl2, 0.1 M HEPES (pH 7.8), 14% PEG 3350
[8] = target: T1, drHerA (Deinococcus radiodurans, UniProt Q9RW32); assay: X-ray crystal structure, […] Å; format: binding; settings: Mg2+; crystals set up with ADP, NaF and AlCl3, only ADP seen; one ADP per protomer
T1 construct: gene DR_0837; full length, residues 1-618, N-terminal 6xHis tag (pET28a), expressed in E. coli Rosetta (DE3); homohexamer; ADP site between two protomers
T1 sequence (Q9RW32 1-618): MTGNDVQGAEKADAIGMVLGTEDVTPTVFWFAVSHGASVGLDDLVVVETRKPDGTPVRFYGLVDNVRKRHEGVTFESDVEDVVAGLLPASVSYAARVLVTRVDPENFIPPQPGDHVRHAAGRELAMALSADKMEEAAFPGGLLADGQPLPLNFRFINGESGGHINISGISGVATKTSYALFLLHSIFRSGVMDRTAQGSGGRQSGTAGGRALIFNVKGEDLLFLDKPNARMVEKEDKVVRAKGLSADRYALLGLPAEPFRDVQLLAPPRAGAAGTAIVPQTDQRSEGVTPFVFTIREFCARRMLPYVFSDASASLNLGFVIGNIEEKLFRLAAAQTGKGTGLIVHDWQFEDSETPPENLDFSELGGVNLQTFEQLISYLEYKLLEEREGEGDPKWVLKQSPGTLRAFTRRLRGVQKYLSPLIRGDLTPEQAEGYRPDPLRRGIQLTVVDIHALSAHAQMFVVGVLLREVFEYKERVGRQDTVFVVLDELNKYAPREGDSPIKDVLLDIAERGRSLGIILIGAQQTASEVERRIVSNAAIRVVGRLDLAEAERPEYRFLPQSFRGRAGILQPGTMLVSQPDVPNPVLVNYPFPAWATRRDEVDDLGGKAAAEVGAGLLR

Deinococcus radiodurans NurA (enzyme)
ATPase activity of drHerA with drNurA, Mn2+, ds DNA (ATPase mol/protein/min) [1]: 4.18 | ATPase activity of drHerA with drNurA, Mn2+, no DNA (ATPase mol/protein/min) [1]: 0.42 | ATPase activity of drHerA with drNurA, Mn2+, ss DNA (ATPase mol/protein/min) [1]: 28.6 | ATPase activity of HerA^m with drNurA, Mn2+, ds DNA (ATPase mol/protein/min) [2]: 0.38 | ATPase activity of HerA^m with drNurA, Mn2+, no DNA (ATPase mol/protein/min) [2]: < 0.01 | ATPase activity of HerA^m with drNurA, Mn2+, ss DNA (ATPase mol/protein/min) [2]: 6.01 | stoichiometry N [3]: 2

Deinococcus radiodurans HerA (enzyme)
stoichiometry N [4]: 6 | stoichiometry N [5]: 6 | stoichiometry N [6]: 6 | stoichiometry N [7]: 6

Nc1ncnc2c1ncn2[C@@H]1O[C@H](COP(=O)(O)OP(=O)(O)O)[C@@H](O)[C@H]1O [ADP]
X-ray crystal structure, 3.4 Å [8]: each protomer is bound to one ADP molecule
